Results published in paper PMC10770428 (Current Research in Structural Biology, 2023).

T1: C-terminal FH1-FH2 FMN1 (amino acids 870–1466) (mouse, UniProt Q05860 870-1466)
T1 sequence (looked up): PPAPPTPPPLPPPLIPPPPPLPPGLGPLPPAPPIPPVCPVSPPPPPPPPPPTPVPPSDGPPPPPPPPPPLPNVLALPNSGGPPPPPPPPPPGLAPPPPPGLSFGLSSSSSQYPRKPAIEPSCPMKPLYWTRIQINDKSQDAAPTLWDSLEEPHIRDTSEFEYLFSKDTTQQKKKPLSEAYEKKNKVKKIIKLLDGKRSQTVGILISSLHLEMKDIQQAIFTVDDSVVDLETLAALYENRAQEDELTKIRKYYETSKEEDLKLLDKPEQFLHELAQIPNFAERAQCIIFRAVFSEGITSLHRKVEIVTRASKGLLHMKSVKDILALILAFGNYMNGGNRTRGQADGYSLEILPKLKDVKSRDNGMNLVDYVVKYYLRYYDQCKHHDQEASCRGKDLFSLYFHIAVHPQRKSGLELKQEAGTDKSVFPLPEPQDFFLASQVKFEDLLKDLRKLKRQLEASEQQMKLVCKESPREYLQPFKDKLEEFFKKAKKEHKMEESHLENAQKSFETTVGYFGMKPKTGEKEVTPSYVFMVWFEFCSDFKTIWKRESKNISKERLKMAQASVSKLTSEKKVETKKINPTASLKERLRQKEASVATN

B1: N-terminal WW1-WW2 FNBP4 (amino acids 214–629) (domain or fragment, UniProt Q8N3X1 214-629, looked up)
chain: GIEMGDWQEVWDENTGCYYYWNTQTNEVTWELPQYLATQVQGLQHYQPSSVPGAETSFVVNTDIYSKEKTISVSSSKSGPVIAKREVKKEVNEGIQALSNSEEEKKGVAASLLAPLLPEGIKEEEERWRRKVICKEEPVSEVKETSTTVEEATTIVKPQEIMLDNIEDPSQEDLCSVVQSGESEEEEEQDTLELELVLERKKAELRALEEGDGSVSGSSPRSDISQPASQDGMRRLMSKRGKWKMFVRATSPESTSRSSSKTGRDTPENGETAIGAENSEKIDENSDKEMEVEESPEKIKVQTTPKVEEEQDLKFQIGELANTLTSKFEFLGINRQSISNFHVLLLQTETRIADWREGALNGNYLKRKLQDAAEQLKQYEINATPKGWSCHWDRDHRRYFYVNEQSGESQWEFPDG
B2: WW1 FNBP4 (amino acids 214–430) (domain or fragment, UniProt Q8N3X1 214-430, looked up)
chain: GIEMGDWQEVWDENTGCYYYWNTQTNEVTWELPQYLATQVQGLQHYQPSSVPGAETSFVVNTDIYSKEKTISVSSSKSGPVIAKREVKKEVNEGIQALSNSEEEKKGVAASLLAPLLPEGIKEEEERWRRKVICKEEPVSEVKETSTTVEEATTIVKPQEIMLDNIEDPSQEDLCSVVQSGESEEEEEQDTLELELVLERKKAELRALEEGDGSVSG
B3: FH1 FMN1 (amino acids 870–970) (domain or fragment, mouse, UniProt Q05860 870-970, looked up)
chain: PPAPPTPPPLPPPLIPPPPPLPPGLGPLPPAPPIPPVCPVSPPPPPPPPPPTPVPPSDGPPPPPPPPPPLPNVLALPNSGGPPPPPPPPPPGLAPPPPPGL

Legend:
[1] = target: T1, C-terminal FH1-FH2 FMN1 (amino acids …); assay: SPR
[2] = target: B1; assay: SPR

Row | Kd [1] [nM] | koff [1] [s⁻¹] | kon [1] [M⁻¹ s⁻¹] | Kd [2] [nM] | koff [2] [s⁻¹] | kon [2] [M⁻¹ s⁻¹] | Binder
1 | 1.84 | 0.000571 | 310000 | – | – | – | B1
2 | 2 | 0.00127 | 637000 | – | – | – | B2
3 | – | – | – | 0.56 | 0.0107 | 1.94e+07 | B3
